Here are results for 19 sequences from the DeepSol protein solubility set.

The data set can be described thus: soluble on expression in E. coli; label from the status in PepcDB or PDB records.
With “MNRFSGKSVIVTGSSSGIGRATAVLFAKYGAQVTITGRDAGKLEATKKKMLKVMKNPENVCVVVANLTDSDGQDEIVQSALDAFGRIDVLVNNAGANVVDGTFNTDQSTELYHKTFQINFEAVIEMVKKTKNHLIESKGEIVNVSSVAAGPQALAPSPYYAASKAALDQYTRCVALDLILQGVRVNSVSPGVVTSGFLGAMGMSEQVQKQIEENFTSNRACIPAGVCGKPEDIAELIIFLADRKRSSYIIGQSIVADGGTSLVSGLTAQNIQRNN”, the “soluble on expression in E. coli” value is listed as “not soluble”.
In the case of “MNRRDFLQFGLRGIVVAGLGKGFYNTTSEQVEIVRTSVKIRNLPAALQGLKIGLLTDLHASFVVSSETIRSAGRLLMAEKPDLIVMTGDYISGSTRFLSGSVGQFKKEYLSKCIDALSGLKAPLGIYGVLGNHDFWSGPESVKAICEAFTRQMGMVWLRNSSVEIRRGRGSLHLLGVDDYWEPSCSLAAACKGVDTDGIKILLSHNPDINDEIFLLRERIDLVLSGHTHGGQVVVPFLGQPVMPSKFGQKYRAGLVRDGDRQTYISRGVGCLLAPIRLNCPPEATVLTLTLEHHHHHH”, the “soluble on expression in E. coli” value was “soluble”.
The same measure for “MNRSTISPVEARQQFRAGLIQPTSGWSAGFAQANLISMPQDLAYDFLLFAQRNPKPCPILEVLNAGETFGGIFGSNATEADIRTDAPQYRIYAHGELIDSPASAVDYWRDDLVSFIIGCSFTFEHPMVQAGVPVRHLEAGRNVPMYETSLACRPAGSLSGNLVVSLRMIPASQVADAVRITSRYPAVHGAPVHIGDPSLIGIDDINNPDFGDAPLSEPSDVPVFWACGVTPQAMVMSSKPPLAITHAPGHMLITDAPDLGFQVPLEHHHHHH”: “not soluble”; for “MNSENSFSSSEHITVLLHEAVNGLALKENGIYIDGTFGRGGHSRFILSQLSSNGRLIAVDRDPRAIAEAHKIQDLRFQIEHNSFSHIPEICDKLNLVGKIDGILLDLGVSSPQLDEAERGFSFMKDGPLDMRMDTTQGLSAEEWLKQVSIEDLTWVLKTFGEERFAKRIATAIVDFNKSAVKNGTEFLSRTSQLAELISQAVPFKDKHKHPATRSFQAIRIFINSELDELESLLNSALDMLAPEGRLSIISFHSLEDRMVKHFMKKQSKGEDIPKGLPLREDQIQRNQKLRIIGKAIQPSDAEIQANPRSRSAILRVAERILEHHHHHH”: “soluble”; for “MNSKSRITAIGTHVPNQILSNNDLEKMIDTNDEWIVQRTGMKERRIASEDEYSSNLAIKAVENLCTTYKKNLEDVDCIIVATTTADYVFPSVACQIQQYFNIPHTMAFDLNATCAGFTYGLHVGNSLITSGSHKKVLVVATETLSKVTDYTDRTTCILFGDGAGAILLERDENKPSFIAYHMGTNGHGGIHLYRTNLSTTMNDTPLQTNEKIVQNGREVYKWATRTVPVGIKELLHTANMKMDDIDWFIPHSANLRMIESICEKSQIPIHKTLTSVEYMGNTSSVSIPLALDLARKKGKLNNGDTLLLYGFGGGLTHLGLIVEWDLS”: “not soluble”.
“MNSNYKRYKMLVFDLDGTLLNNNHEIAFLTLEVLLALKEDFKIIIATGRRLSEVKNIRSQLKEISINENYLVTANGAEVFLQENLIFRYAMNYDLAKEILKINTDNVDVNLYTFDTWYSNADVKSPIMKHFIKDLGLNVIIGDLTKLNVDSVSKIVYYCDDLAILNKLDTEIKSKDFQDTRVFFSSKDLLEVTNINANKYNAIKNIAFLESIPLCDVLAFGDNNNDYEMLKNLGKGVLMKNANEFLKINLAKNEITRFSNNEDGVARFLIDFFKLNIKY”: the “soluble on expression in E. coli” value is “not soluble”.
The same measure for “MNSSSASIPRTAHAAVPTAHASRYLQQLCKHWAHKFEAEFDPIQARIALPLGEARLTARPDALLIDLTATDAANMTTFQQVVISHIERFAFREELRFVWG”: “not soluble”; for “MNTENPIEKPFRKTGDPVDLTSESPLHPRRKSRRIMVGPVPVGGGAPISVQSMTNTLTANVPATLQQIAELTAAGCDIVRVAVPSQDDADALPEICRKSPIPVIADIHFQSKYVFQAIDAGCAAVRVNPGNIRKFDEVGPDICKAATDAGISLRIGVNAGSLDKELYAKYGGPTPEALVASALKEAHMFEDVGFHDFKISVKHHDVITMVETYRLLASKGDWPLHLGVTEAGPAWQGTIKSCLAFGALLAEGIGDTIRVSLSAPPAEEVKVGCKLLEYMGLRPRKFDIISCPSCGRAQVDVIQLASAVTEGLKDVTAPIRVAVMGCIVNGPGEAREADLGVASGNGKGQIFIKGKVIKTVPEDQIVDTLLTIANDIAAQMEADGQVPVNSTGPVVVPIQHPGHLEHHHHHH”: “not soluble”; for “MNTFGTRLKFTSFGESHGVAVGCIIDGMPAGVKFDEEFLQNELDKRKGGSKFATPRKESDKAQVLSGVFEGYTTGHPIAIVVFNENAHSKDYDNLKDLFRPAHADFTYFYKYGIRDHRGGGRSSARESVARVAGGAVAAMLLREFDICVQSGVFGVGTFVSNLKEEEFDFEFAKKSEIFCLDPKLESDFKNEILNARNSKDSVGAAVFTKVSGMLIGLGEVLYDKLDSKLAHALMGINAVKAVEIGEGINASKMRGSCNNDALKDGKFLSNHSGGILGGISNGENLILKTYFKPTPSIFAKQESIDKFGNNLKFELKGRHDPCVGVRGSVVASAMVRLVLADCLLLNASANLNNLKNAYGLKLEHHHHHH”: “soluble”.
The same measure for “MNTLLSLMNSIEQEARTIYDSYDAKKKALADKKEEELKQLFLEYEQETQLLLEAKREVFFEANRQEQKASKKRLATQQLALHAILEEHKLTVVRELVDKVVETYGH”: “not soluble”.
In the case of “MNTLVLPKTQHLVVFQEVIRSGSIGSAAKSLGLTQPAVSKIISDVEAYFGVELIVRKNTGVTLTEAGQVLLSWSESITREMKNMINEMNSMTCNTVVDVSFGFPSLIGFTFMSDMIHKFKEVFPKAQVSMYEAQLSSFLPALRDGRLDFAIGTLSNEMQLQDLHVEPLFESEFVLVASKSRTCTGTITLESLKDEQWVLPQTNMGYYSELLTTLQRNGISIENIVKTDSVVTIYNLVLNADFLTVIPCDMTTPFGSNQFITIPIQDTLPVARYAAVWSKNYRIKKAASVLVELAKQYSSYNGCRRRQLIEIE” it was “soluble”.
Take “MNTNERIVPLLPLRGVLVYPTMVLHLDVGRDKSIQALEQAAMDENIIFLAMQKEMNIDDPKEDDIYSVGTVAKVKQMLKLPNGTLRVLVEGLHRAEVVEFIEEENVVQVSIKTVTEEVEADLEEKALMRTLLEHFEQYIKVSKKVSNETFATVADVEEPGRLVDLIASHLPIKTKQKQEILEIISVKERLHTLISIIQDEQELLSLEKKIGQKVKRSMERTQKEYFLREQMKAIQTELGDKEGKGGEVEELREKIEQSGMPEETMKAALKELDRYEKLPASSAESGVIRNYMDWLLALPWTDATEDMIDLAHSEEILNKDHYGLEKVKERVLEYLAVQKLTNSLKGPILCLVGPPGVGKTSLARSIATSLNRNFVRVSLGGVRDESEIRGHRRTYVGAMPGRIIQGMKKAKSVNPVFLLDEIDKMSNDFRGDPSAALLEVLDPEQNHNFSDHYIEEPYDLSKVMFVATANTLSSIPGPLLDRMEIISIAGYTELEKVHIAREHLLPKQLQEHGLRKGNLQVRDEALLEIIRYYTREAGVRTLERQIAKVCRKVAKIIVTAERKRIVVTEKNVVDLLGKHIFRYGQAEKTDQVGMATGLAYTAAGGDTLAIEVSVAPGKGKLILTGKLGDVMKESAQAAFSYIRSRAEELQIDPNFHEKNDIHIHVPEGAVPKDGPSAGITMATALISALTGIPVSKEVGMTGEITLRGRVLPIGGLKEKTLSAHRAGLTKIILPAENEKDLDDIPESVKENLTFVLASHLDEVLEHALVGVKQ”: the “soluble on expression in E. coli” value is reported as “not soluble”.
The same measure for “MNTPFDFPEGAGRLVYVRPVPVAELPEDVQSMARGLDHIYALHGADGERLALVRDRHLAFVLARQNDLAPVNVH”: “not soluble”.
For “MNTPRIPIASHQAVMRCLRDKLQQANLTLQTDYTEPAVSYQQRGATAGTAWLQHWEIRLNPVLLQENQQTFIDEVVPHELAHLLVYARFGRVAPHGKEWRWMMENVLHVPAKRTHRFAVQSVQGKTFTYLCDCQRHELTIRRHNRVLRGETEYRCRRCGKTLRHDVKSSILEHHHHHH”, the “soluble on expression in E. coli” value is “soluble”.
On to “MNTQSLMSSTHTIAASDPHIQVMGRTHINDDASLTFGYPGVSLSTIVAGSRLTAEMQSSNGNSWIDVIIDNHPPTSIKLDAQQQTVELFHFPNSGEHRVEIIHRSENWHGQVTLKQLTLTGTQFLPAPVLPQRKILVLGDSVTCGEAIDRVAGEDKNTRWWNARESYGMLTAKALDAQVQLVCWGGRGLIRSWNGKTDDANLPDFYQFTLGDTGQAPQWDHHRYQPDLIISAIGTNDFSPGIPDRATYINTYTRFVRTLLDNHPQATIVLTEGAILNGDKKAALVSYIGETRQQLHSNRVFYASSSHHPGDNSDAHPTKDQHAAMARELTPQLRQIMDWLEHHHHHH”, for which the “soluble on expression in E. coli” value is reported as “soluble”.
In the case of “MNTSTSAFDFGSSTASSAATSTTSSQPDANDHLSRLAAMTQGVGKEDPETSSTPSTEASLYPGISAAYMQSYGWPQNYNYFGQPLGPATFPGWPQCYPNTAWPNYGELFASSKKGRQTYQRYQTSVLEAKFQQSSYVSKKQREELRLQTQLTDRQIKIWFQNRRMKAKKEKQRVDDHTEHTPLLPANPPKGMGMDMDDEKKWQMAHWPPAAAHNPYQYPLCPP” it was “soluble”.
Consider “MNTTGETTQPFYSHCDMNDPLCRAERLRTQFDYYRWHSLQPDDNDDVDTYTTDIATRIGKTQRYVCDHLDAIYYLTQLPQLHTVYQQLWHLDDTRLIAITRIISALPTTYYDAIDTHLTRWLTPTQPAQTIPSTRAITRFLRKTITHLGFHLDNTRKPEQYVYIYDAGHGLAGIDALIHAGVAEMFETTLRSIKKTHSCDDSTALQLLLEDKTSVVINVYDTGTGITYTPQGTALPQVPEHLVIRVLGDADVAVSTGYRFTEAMRRFIQGRDGVCRFPGCGVPAQWCDIDHVEEYDLGGVTGAVNAQCLCRHHHNVKTSRRVDCEIGAGGVVTWQIGDRRVVTTPEGVLAGQTFRQRREKKIKKAA”, for which the “soluble on expression in E. coli” value was “not soluble”.
The same measure for “MNTVIDFSAGVPPAVEVKAAGHIGVMRYISPPRLSWMTAKPATRPQIDRCRSAGVDVGFVWQYGGADNPDTMRGRTGGHADATSAQAKLIELGCPHHPVFFAVDFDISLDQWNATAVHYFKAACEVLGRDRVGIYGHSRVISWAVEDQVIADLGGGKHLAWQTPAWSMGERATEAVLYQGAANVKGPAGINIDVNEVLHHEWGQHPVGETRLEKSQEMELAMKPNPNHRGDPLFLPDVLKAFGVKVQEWDGWRDRGHGDFTVIQGVFAHHTGTDKDIPGYIADHPELGLCSQIHLNRDGTAVIVGAGIAYHAGRGSYPGWPTDNANQVAIGIEAASSGTSPWPPAQLDAYYRTCAAILWYLGKPATPQTLLGHKEYSGAAQGKWDPGGIDMNDFRRNVQHYIDNPPFLAADAAHITKEEDPMIQSLINPAKKFAQSTLISIVDATCWQILVLAKAIAKKQGLDPDQILADAITADREGK”: “not soluble”; for “MNVLFLSISLGSGHIRAAEALQKFVVQKYPKSKTLIVDTFKYINPLIHTVVVDGYLNIVKYVPEIYGGLYRMSEHIKNIDRMSRGFSNLLTPKIHRLIQSFKPSIIVCTHPFPLQMIAHLKKHYNLDVPSIAIVTDFVNHPFWFQNNIEAYIVAHDYIKRDMIECGISEDRIFTYGLPVAPEFLKSIPKEQARKELSLENTLTVLLMGGSLGIGDIENTFKSFAKCKRDIQIIAVAGKNTALKKRLDSLAASFPMPVKIFGYTDSIPMLMDASDFIVTKPGAMTISEALVKRLPALIISPIPGQEERNEQFLVNSGTAVRIYKNTKIDSVLCQVYDNKLRYKQMKEIAGNLANPDSGRNILSLIEKLVNDNEKGLFKYSFNAF”: “soluble”.
